# Experimental data as given in paper PMC2562697.
# B1: G:T mismatch 35 bp (dsDNA)
# DNA 1: GTGGATCCCCCGGGCTGCGGGAATTCGATATCAAG
# DNA 2: CTTGATATCGAATTCCTGCAGCCCGGGGGATCCAC
# Target: MutSα subunit MSH2-His6;MutSα subunit MSH6 (human;human, UniProt P43246;P52701 1-934;1-1360, |)
# Assay: EMSA
binder,measurement,value
B1,binding result,binds
